# Measured values reported in PMC12774660 (Nucleic Acids Research, 2026).
# B1: Lsm11 R109E/I110A/R112E/L113A/R114E/L116A (natural protein, human, UniProt P83369 1-360, looked up)
# chain: MEERERGARSAGAGSPARPPSPRLDVSSDSFDPLLALYAPRLPPIPYPNAPCFNNVAEYESFLRTGVRGGGRGRGRARGAAAGSGVPAAPGPSGRTRRRPDAPAPDPEEAQEAERAMVAKEEGDGAAGAGRRGPGRSRKAPRNVLTRMPLHEGSPLGELHRCIREGVKVNVHIRTFKGLRGVCTGFLVAFDKFWNMALTDVDETYRKPVLGKAYERDSSLTLTRLFDRLKLQDSSKKEADSKSAVEDSTLSRYSQTSTWKLASVWGRADTGRGSHKRSRSVPSSLQASAREESRSELSGRTTRTDGSSVGGTFSRATTLSRGQSRKKKRKPKVDYQQVFTRHINQIFIRGENVLLVHLAQ
# Molecular target: T1, CPSF73 (human, UniProt Q9UKF6 1-684)
# T1 sequence: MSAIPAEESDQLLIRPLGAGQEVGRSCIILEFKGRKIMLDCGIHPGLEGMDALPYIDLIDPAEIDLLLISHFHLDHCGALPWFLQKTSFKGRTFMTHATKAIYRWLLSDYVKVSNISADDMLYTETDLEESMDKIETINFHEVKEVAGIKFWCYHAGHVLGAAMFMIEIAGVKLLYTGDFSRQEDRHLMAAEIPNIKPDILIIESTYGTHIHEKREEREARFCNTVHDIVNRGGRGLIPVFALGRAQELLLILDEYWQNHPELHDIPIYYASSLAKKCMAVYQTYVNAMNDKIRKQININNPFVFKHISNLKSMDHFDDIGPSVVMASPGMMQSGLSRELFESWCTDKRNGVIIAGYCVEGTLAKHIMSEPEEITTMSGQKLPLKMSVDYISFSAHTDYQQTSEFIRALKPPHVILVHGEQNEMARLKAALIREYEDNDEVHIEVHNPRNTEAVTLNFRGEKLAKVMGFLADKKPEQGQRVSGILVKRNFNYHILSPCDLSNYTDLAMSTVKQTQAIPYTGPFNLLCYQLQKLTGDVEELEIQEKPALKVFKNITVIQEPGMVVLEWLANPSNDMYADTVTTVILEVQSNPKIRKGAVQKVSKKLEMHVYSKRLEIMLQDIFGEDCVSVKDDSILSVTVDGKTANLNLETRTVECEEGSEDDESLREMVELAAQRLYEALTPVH
# Test: cell-based or functional assay
binder,measurement,value
B1,"cleavage activity of the U7 snRNP with sextuple mutant Lsm11 toward the H2a* substrate, compared to the wild-type, in the absence of SLBP",~3 fold lower
